Laboratory results reported in the nanobody polyreactivity screen of Harvey et al. (2022).

Assay: yeast display, Sf9 membrane polyspecificity reagent, FACS + sequencing; frameworks hold sequencing errors
Outline: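 A nanobody's polyreactivity label depends on the gate it was sorted from. Yeast display cells were stained with 10% biotinylated, detergent-solubilized Sf9 membrane reagent for 1 hour at 4 °C, enriched on streptavidin microbeads and sorted by FACS. The low and high (top ~1%) gates were set on anti-HA fluorescence for expression and streptavidin fluorescence for reagent binding.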

Sequence | polyreactivity (PSR sort gate)
QVQLVESGGGLVQAGGSLRLSCAASGSIFTHNAMGWYRQAPGKERVLVAAISSGGSTNYADSVKGRFTISRDNAKNTVYLQMNSLKPEDTAVYYCAKSIDGWYWRRRRYDYWVQGTQVTVSS | low polyreactivity
QVQLVESGGGLVQPGGSLRLSCAASGFIFRNYAMGWYRQAPGQERELVAAITRSGDNTYYADSVKGRFTISRDNAKNTVYLQMNSLKPEDTAVYYCAARDVQYQQALGGDYWGQGTQVTVSS | low polyreactivity
QVQLGESGGGLVQAGGSLRLSCAASGRTFYWYDMGWYRQAPGKERELVAAITRSGGSTDYADSVKGRFTISRDNAKNTVYLQMNSLKPEDTAVYYCNADYEVSSQRPAFDYWGQGTQVTVSS | low polyreactivity
QVQLVESGGGLVQAGGSLRLSSAASGFIFDGNAMGWYRQAPGKERELVAAIRSGGRTNYADSVKGRFTISRDNAKNTVYLQMNSLKPEDTAVYYCAARSIYPYYYRRDNRYYYWGQGTQVTVSS | high polyreactivity
QVQLVESGGGLVQAGGSLRLSSAASGSIFVNYVMGWYRQAPGKERELVADISSGGSTYYADSVKGRFTISRDNAKNTVYLQMNSLKPEDTAVYYCNAVYPYTYDYWGQGTQVTVSS | low polyreactivity
QVQLVESGGGLVQAGGSLRLSCAASGLTFQLYTMGWYRQAPGKERELVAAISRSGTRTYYADSVKGRFTISRDNAQNTVYLQMNSLKPEDTAVYYCAARTDGYRNNYWGQATQVTVSS | high polyreactivity
QVQLVESGGGLFQAGGSLSLSCAASGFIFYTNAMGWYRQAPGKERELVATITTSGGRTYYADSVKGRFTISRDNAKNTVFLQMNSLKPEDTAVDYCATRYVVIEYDYWGQGTQVTVSS | low polyreactivity
QDQLVESGGGLVQAGGSLSLSCAASRFIYLTYAMGWSRQAPGKERELVAAISSRGGSTYYADSVKGRFTISRDNAKNTVYLQMNSLKPEDTAVYYCAYTRGKYDYWGQGTQVTVSS | high polyreactivity
QVQLVESGGGLVQAGGSLRISCAASGIIFRYYAMGWYRQAPGKERELVARISSGGSTKYADSVKGRYTISRDNAKNTVYLQMNSLKPEDTAVYYCAAEYYSLRYAIFYYWGQGTQVTVSS | high polyreactivity
QVQLEESGGGLVQAGGSLRLICPASGRTFIRKAMGRYRQAPGKERELVASIRWSGGSTYYADSVKGRFTISRDNAKNTVYLQMNSLKTEDTAVYYCAASRWRPLERGTTWLHDYWGQGSQVTVSS | low polyreactivity
QDQLVESGGGLVQAGGSLRLSCASSGFTFYVYAMGWYRQAPGKERELVAAISRSGSRTYYADSVKGRVTISRDNAQKTVYLQMNSLKPEDTAVYYCARVRPRGLYFVLHYDYWGQGTQVTVSS | high polyreactivity
QVQLVESGGGLVQAGGSLRLSSAASGSIFYGNTMGWYRQAPGKERELVAAIRSVGRTYYADSVKGRFTISRDNAKNTDSLQMNSLKPEDTAVYYCAADPRSYFTSEYWGQGSQVTVSS | low polyreactivity
QVQLVESGGGLVQAGGSLRLSCAASGRIFDYYAMGWYRQAPGKERELVAAISLIGASTYYADSVKGRFTISRDNAKNSVYLQMNSLKQEDPAVDYCAAQYAFEVPGYYREDYYWGQGTQVTVSS | low polyreactivity
QVQLVESGGGLVQAGGSLRLTCDASGSTFVYYAMGWYRQAPGKERELVAAITFSGGTTFYADSVKGRFTISRDNANNTVYLQMNSLKPEDTAVYYCAADAGFADQYANYHGDDYWGQGTQVTVSS | low polyreactivity
QVQLVESGGGLLKEGGSLRLICAASGRIFVGYDMGWYRQEPGKERELVAAISSDGGSTYYSDSVKGRFTISRDNAKNTVYLQMNSVKPEDTAFYYCAADDFSTVEYDYWGQGTQVNVSS | low polyreactivity
QVQLVESGGGLVQAGGSLRLSCAASGFILDTYGMGWYRQAPGKERELVAAISQSDVSTYYADSVKGRFTISRYNAKNTVYLQMNSLKPEDTAVYYCAADRAGLRWFWQVLYDYWGQGTQVTVSS | low polyreactivity
QVQLVESGGGLVQAGGSLRLSCAASGFIFTRYAMGWYRQAPGKERELVAVITSSGGTYYADSVKGRFTISRDNAKNSVYLQMNSLKPEDTAVYYCNADFYRVAYLRRYSHFDYWGQGTQVTVSS | high polyreactivity
QVQLVESGGGLVQAGGSLRLSCAASGLTLFRNAMGWYRQAPGKERELVAAISSGGSTYYADSVKGRFTISRDNAKNTVYLQMNSLKPEDTAVYYCATDSVSPVEEEDYWGQGTQVTVSS | low polyreactivity
QVQLVESGGGLVQAGGSLRLSCASSGNIFDRYAMGRYRPAPGKERELVAGITWSGGSTNYADSVKGRFTISRDNAKNTVYLQMNSLKPEDTAVYYCGQANYYWGQGSQVTVSS | low polyreactivity
QVQLVESGGGLVQAGGSLRLSCAASGLTFQTNAMGWYRQAPGKERELVAAISRRGSSTYYADSVKGRFTISRDNAKNTVYLQMNSLKPEDTAVYYCNAVRFLFIYPRYDYWGQGTQVTVSS | high polyreactivity
QVQLVESGGGLVQAGGSLRLSCAASGRTFVYYAMGWYRQAPGNERELVASISSGAGSPNYADSVKGRYTISRDNAKNTGYVQMNSLKPEDTAVYYCAVDTPRYRYYRTSYDYWRQGTQVTVSS | low polyreactivity
QVQIVETGGGLVQAGGSLRLSCDASGSIFPDYAKGWYRQAPRKERELLASISWDGGSTYYADSVKGRFTISRDNAKNTVYLQMNSLKPEDTAVYYCATEWLVGGGVTVDYWGQGTQVSVSS | low polyreactivity

Sequence | polyreactivity (PSR sort gate)
QVQLVESGGGLVQAGGSLRLSCAASGSIFYYNAKGWYTQAPGKERELVAVISYRSGRTSDADSVKGRFTISRDNAKNTVYLQMNSLKPEDTAVYYCATRDWWRYRHTGVIKFDYWGQGTQVSVSS | high polyreactivity
QDQHVESGGGLVQAGGSLRLSCAASGGIFYTYTMGWYRQAPGKEREFVAAITRSGDRTYYADSVKGRFTISRDNAKNTGYLQMNSLKPEDTAVYYCNTVTRKNPSGLALDEYNYCGQGTQVTVSS | high polyreactivity
QVQLVESGGGLVQAGGSLRLSCAASGSTFFWYGMGWYRQAPGKERELVAAISSDGSTYYADSVKGRFTISRDNAKNTVYLQMNSLKPEDTAVYYCAAQIPWYIYPGSYTMDYWGQGTQVTVSS | low polyreactivity
QGQLVESGGGLVQAGGSLRLSCAASGSTLVKYAMGTNRQAPGKERELVAAISWSGGRTDYADSVKGRFTSSRDNAKNTVYLQMNSLKPEDTAVYYCAARSTRFYTPGYYYWGQGTQVTVSS | high polyreactivity
QVQLVESGGGLVQAGGSLRLSCAASGRIFLNYAMGWYRQAPGKERELDAAISRRGASTYYADSVKGRFTISRENAKNTVYLQMNSLKPEDTAVYYCATVPGKSGDYWGLGTQVTVSS | high polyreactivity
QVQLVESGGGLVQAGGSLRLSCAASGSIFRSNAMGWYRQAPGKERELVAAISRSGGRTYYADSVKGRFTISRDNAKNTVYLLMNSLKPEDTAVYYCAAQVVRSLKYEYWGQGTQVTVSS | high polyreactivity
QVQLVESGGGLVQAGGSLRLSCAASGSTFRQYAMGWYRQAPGKERELVAGISYRGGRTYYADSVKGRFTISRDNAKNTVYLHMNSLKPEDTAVYYCNALRHYRDISVDGDDYWGQGTQVTVSS | high polyreactivity
QVQLVESGGGLVQAGGSLRLSCAASGSIFSTYVMVWYRQAPGKERELVAAITVSVGSTYYADSVKGRFTISRDNAKNTVYLQMNSLKPEDTAVYYCAAYGGTGYPFDAYYHDYDYWGQGTQVTVSS | low polyreactivity
QVQLVESGGALVQAAGSLRLSCAASGRTFRRNTMGWYRQAPGKERELVAAISSSGSSTYYADSVKGRFTISRDNEKNTVYLQMNSLKPEDTAVYYCAATGSRRFGYWGQGTQVTVSS | high polyreactivity
QVQLVESGGGLVQAGGSLRLTCAASGSIFYRNAMGLYRQAPGKEMELVADISWSGSSTYADSVKGLFTISRDNAKYTVYLHMNTLKPEDTAVYYCAAGGHYYSSPGYNYWGQGTQVTVSS | high polyreactivity
QVQLVESGGGLVQAGGSLRLSCAASGRTFRRYAMGWYRQAPGKERELVATITNAGSTYYADSVKGRFTISRDNAKNTVYLQMNSLKPEDTAVYYCAARVPYISDYWGQGTQVTVSS | low polyreactivity
QVQLVESGGGLVQAGGSLRLSCAASGSTFRFNAMGWYRQAPGKEREFVAAISTSGGSTYYADSVKGRFTISRDNAKNTVYLQMNSLKPEDTAVYYCATRRRIRSSFYYDNDYWGQGTQVTVSS | high polyreactivity
QVQLVESGGGLVQAGGSLRLSCAASGFMFSRYGMGWYRQAPGKERELVAAISGSCGSTYYADSVKGRFTISRDNAKNTVYLQMKSLKPEDTAFYLCATAYSWSNSDWFAYSYDYWGHGTQVTVSS | low polyreactivity
QVQLVESGGGLVQAGRSLRLSCAASGFIFWSNTKGWYRQAPGKERELVAAISYSGARTYYADSVKGRFTISRDNAKNTVYLLMNSLKPEDTAVYDCAAYLWGTHDRMDYWGQGTQVTVSS | high polyreactivity
QVQLVESGGGLVQAGGSLRLSCAASGFILPHNAMGWYRQAPGKERELVAAISGSGGSTYYADSVKGRFTISRDNAKNTVYLQMNSLKPEDTAFYYCNADVWVYPYDYWGQGTQVTVSS | low polyreactivity
QVQVVESGGGLVKAGGSLRLSCAASGGTFLINAMGWYRQAPGKERELVATITSGGTTYYADSVKGRFTISRDNAKNTVYLQMNSLKPEDTAVYYCATRGKGRYGYDSWGQGTQVTVSS | low polyreactivity
QVQLVESGGGLVQAGGSLRLSCAASGRIFASYAMGWYRQAPGKERELVASITRRGGSTYYADSVKGRFTISRDNAKNTVYLQMNSLKPPGSTYEGGYWGQGTQVTVSS | low polyreactivity
QVQHVESGGGLVQAGGGLRISCAASGSIFHVNAMGWSRLAPGKERELVAGISDGGSTYYADSVKGRFTFSRDTAKHTVYLQLNSLKPEDTAVYYSGAECEQWYSYVLSYDWEYDYWGQGTQVTVSS | low polyreactivity
QVQLVESGGGLVQAGGSLRLSCAASGSTFAANAMGWYRQAPGKERELVAAITGSGGGTYYADSVKGRFTISRDNAKNTVYLQMNSLKPEDTAVYYCNTYYYWQYDWGQGTQVTVSS | high polyreactivity
QVHLVESGGGLVQAGCSLRLICAASRYIFGYYAMGWYRQAPGKERELVAAISTDGSTDYADSVKVRFTISRYNANNTVDLQMNRLKPEDSALYYCAKELFIVTNGVYIYDSWGEGTQVTVSS | low polyreactivity
QVQLVESGGGLVQAGGSLRLSCAASGRIFDKYTMGWYRQAPGTERELVAAISKSGSGTFYADSVKGRFTISRDNAKNTVYLQMNSLKPEDTAVYYCARVYTVGTGRSWRLDYWGQGTQVTVSS | high polyreactivity
